# From the supplement of paper PMC12764529
# ± gives the half width of the 95% confidence interval.
# Tests used:
# [1] = folding stability dG unfold (combined trypsin and chymotrypsin); higher = more stable
# How it was run: (§1)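 Mini-proteins designed to be under 80 residues and free of cysteine were carried in a PA-tagged cDNA display construct and digested with trypsin and with chymotrypsin. Each protease was applied at 11 threefold-diluted concentrations, alongside a no-protease condition, before sequencing. K50 came from Bayesian fitting of the sequencing counts, and unfolding free energy was obtained by comparing it with a sequence-predicted unfolded-state K50 and a shared folded-state K50, for each protease separately or for both together. Designs were retained only if their AlphaFold2 dimer inter-PAE exceeded 15.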
# [2] = folding stability dG unfold from chymotrypsin proteolysis; higher = more stable
# How it was run: as §1
# [3] = folding stability dG unfold from trypsin proteolysis; higher = more stable
# How it was run: as §1
Sequence,folding stability dG unfold [1] [kcal/mol],folding stability dG unfold [2] [kcal/mol],folding stability dG unfold [3] [kcal/mol]
SAGGSAGGSELSDEEIEALRKPPKVRIRVEIVYPDGTVEEREFSSLEEALAAAKERNVTVKILSAGGSAGGS [r12_244_TrROS_Hall],2.28 ± 0.089,1.76 ± 0.058,2.86 ± 0.12
SAGGSAGGSAGGEVIEIELPGKTKEEIEEAIKKLPENYKIEIKKDENGRIRVRIFRKEDLSAGGSAGGSAGG [r7_662_TrROS_Hall],1.44 ± 0.42,1.5 ± 0.17,1.6 ± 0.15
SAGGSAGGSAGGMLFHFEIKDPNSDKEYEVLVEKPPSGKVLVTILKDNKEEVKVLPLELFSAGGSAGGSAGG [r11_952_JUSTAS],-0.29 ± 0.31,-0.393 ± 0.42,0.109 ± 0.17
SAGGMKVTEEPDATIVEVPLPDRKLTLTITRDGPGVTVTVTEDGEVLKTIPTDGPAEEAIAAAIAALSAGGS [r8_276_JUSTAS],1.29 ± 0.07,1.43 ± 0.059,1.04 ± 0.016
SAGGMVYRVKVKITFPDGKTYYIPFPNFKSFEEILNVLKKLGFENLENIPIEVIEIEPIPEVPEELLKSAGG [r13_493_TrMRF],2.74 ± 0.16,3.07 ± 0.11,1.53 ± 0.066
SAGGSAGGSAGGMKLVTLPDGKTYPFTSLEEFKEALLKETGKPVDLKNPVIYPVPPGLSSAGGSAGGSAGGS [r10_62_JUSTAS],0.99 ± 0.22,0.959 ± 0.084,0.401 ± 0.14
SAGGSAGGSPVVLYEVDPSTNSVTLTVEVLHPDGTPLRKEYTTNGDPLEAALRFAKAVLEEAGSAGGSAGGS [r20_33_TrMRF],0.699 ± 0.12,0.813 ± 0.17,0.407 ± 0.21
SAGGSAGGSAAPTNPVEITLKRPDGTPVKATITFYPDGVKVTVEDGDTTTTSWLSPEEITLSAGGSAGGSAG [r3_373_JUSTAS],1.89 ± 0.03,1.722 ± 0.015,2.09 ± 0.037
SAGGSAGGSNKLVKELAKDPNIKSIFVDTKNKKVYILTDNYLIVIDKNGKIEKIEPISPEKLKSAGGSAGGS [r12_895_TrMRF],1.16 ± 0.17,1.26 ± 0.15,0.446 ± 0.098
SAGGSAGGEKTTVLVRVELYLEDTEVVELPDFVFTDLTEEQVLEEVRKLGLPDNVKVEIIPLPASAGGSAGG [r6_88_TrMRF],2.47 ± 0.11,2.46 ± 0.11,2.53 ± 0.073
SAGGSAGGSAGLPEEIADFVKEILEKAFPNVKVLEVEVEELPEGFYVVRARFEDGSEVEFPISAGGSAGGSA [r18_423_TrMRF],3.88 ± 0.069,3.47 ± 0.059,4.29 ± 0.091
SAGGSPVLKVEVFELEEDKLLLKIYFPKEEAGLTPEQKEALAKAIQELFPNTKAFTTDEELYIVVDSAGGSA [r2_256_TrMRF],2.37 ± 0.12,2.38 ± 0.15,2.06 ± 0.075
SAGGKPPKIVVKVEKAPNPETGTYTYKVVLYDPVTGKAYVKPVKTKTPEELEKKAKEVAEELAKELASAGGS [r8_480_TrMRF],1.17 ± 0.084,1.34 ± 0.12,0.727 ± 0.025
SAGGPRVFRLTYLDPETGEPRELRFSLPVPPAPDFISVYVNVPPELARRIAELLRELYPDKPVLVHRSAGGS [r8_437_TrMRF],2.68 ± 0.049,2.971 ± 0.019,2 ± 0.036
SPVEIVSEETDPNGGTKYKTYSNPQADVRIEVAYPSSGITITVHFPDSTSTKSFSSEADAEKEVVRLAASSA [r9_527_JUSTAS],0.711 ± 0.11,0.944 ± 0.15,0.339 ± 0.086
SAGGSAGGSAGMLKKSPSPSIITVKIKPPDSDEVKTINIPPDKPEEVEKLREKGLEIEVLSAGGSAGGSAGG [r11_1006_JUSTAS],-0.211 ± 0.26,-0.178 ± 0.37,-0.459 ± 0.35
SAGGSAEIEVTVYYDPETGEILVLINFPDETKFEVAVEEFKKLFEKVEAVKLPDGSVLVRSPLKDASAGGSA [r15_1057_TrMRF],1.59 ± 0.12,1.7 ± 0.071,1.65 ± 0.12
SAGGSASVLEEAIEEAKKLPPGSVVPLTVTVPTDGEPVVYEILITVHPGENTIEVEKKRKFSPERLSAGGSA [r15_724_JUSTAS],0.439 ± 0.095,0.779 ± 0.1,-0.411 ± 0.14
SAGGSAGGSNEKKYIYRAKITIPGKEGEKPFEIEFESEEEVIELVEKLFPKENIKLEVEKFELDSAGGSAGG [r6_113_TrMRF],2.33 ± 0.15,2.51 ± 0.12,1.83 ± 0.1
SAGGSAGGSAPPNDWYVGIMEITININIDADQLPPPLREKFEKNGIKEIRITFVSVFPPDDFSAGGSAGGSA [r18_127_TrROS],3.14 ± 0.19,3.56 ± 0.11,2.76 ± 0.21
SAGYEWVRELAKKKGFKDIKIEDVQPQRPPDGMEYMHVRIEVQHPGKKREVDIWMRPDNIEEALEQALKSAG [r5_549_TrROS],0.766 ± 0.11,0.993 ± 0.08,0.402 ± 0.096
